The numbers were not newly measured in paper PMC7101603, which cites them from elsewhere.

pKd: −log10 of the molar value.

This data set has as its target Activin-A mature (Homo sapiens) (UniProt P08476).

The pKd is the negative decadic logarithm of the Kd, by convention in mol/L. As to “Activin βA pro-peptide pro-peptide (from UniProt P08476)”, the pKd is 7.00.
